Test system: Bacillus subtilis
Assay: cleaved RNA product abundance (RNA/gDNA barcode ratio) relative to median wild-type variant (ratio to wild type); higher = more accumulation of the downstream cleavage product
Method in brief: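 Reporter mRNAs based on truncated aprE or tetM carried barcoded, mutagenized RNase Y cleavage-site windows built from oligos with a 9% error rate and were integrated into the B. subtilis chromosome. Cultures grew in LB at 37°C from OD600 0.0003 to 0.3. Cleaved RNA was gel-selected, reverse transcribed and barcode-sequenced together with genomic DNA barcodes, and UMIs were collapsed. Cleaved product abundance is the per-construct ratio of RNA to gDNA barcodes, scaled to the median of constructs carrying the unmutated site.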

[1] = experiment (reporter, strain, medium): exp 4a: truncated aprE reporter, strain BJT201 with 2% xylose (RNase J1 expressed), cleavage site: cggR-gapA (positions -7 to +36 mutated)
[2] = experiment (reporter, strain, medium): exp 2b: truncated aprE reporter, strain BJT200, cleavage site: cggR-gapA (positions -7 to +36 mutated)
[3] = experiment (reporter, strain, medium): exp 8a: truncated aprE reporter, strain BJT201 with 2% xylose (RNase J1 expressed), cleavage site: glnRA (positions -5 to +31 mutated)

Row | Sequence | cleaved RNA product abundance [1] | cleaved RNA product abundance [2] | cleaved RNA product abundance [3]
1 | ACAGACGAAGGAGCCGCAAAGAAGTTATTAAGGGATTAATAATCCCGCAATATAAATATCTCTCACTTATTTAAA | 0.225 | – | –
2 | ACAGACGAAGGAGCCGCAAAGAAGTTATTAAGGGATGAATAATCCCAAAATATAAATATCTCTCACTTATTTAAA | 0.31 | 0.306 | –
3 | ACAGACGAAGGAGCCGCAAAGAAGTAATTAAGGGATGAATACTCCCTCAATATAAATATCTCTCACTTATTTAAA | 0.324 | – | –
4 | ACAGACGAAGGAGCCGCAAAGAAGTTATTAAGGGATGAATAAACCCTCAATATAAAAATCTCTCACTTATTTAAA | 0.519 | – | –
5 | ACAGACGAAGGAGCCGCAAAGAAGTTATTAAGGGATGAATAATTCCTAAATATAAATATCTCTCACTTATTTAAA | 0.508 | – | –
6 | ACAGACGAAGGAGCCGCAAAGAACTTATTAAGGGGTGAATAATCCCTCAATATAAATATCTCTCACTTATTTAAA | 0.411 | – | –
7 | CGACATGTCCCGCTTCTTTCATTAATCCGTTAGCAACTGTAATGCTATATACATTTACCTTTTAAGAGGAGGAAT | – | – | 1.06
8 | CGACATGTCCCGCTTCTTTCATTAAACCCTTAGCAACTGTTTTGCTATATACATTTACCTTTTAAGAGGAGGAAT | – | – | 0.18
9 | ACAGACGAAGGAGCCGCAAAGAAGATATTAACGGATGAATAATCCCTCAATATAAATATCTCTCACTTATTTAAA | 0.207 | – | –
10 | ACAGACGAAGGAGCCGCAAAGAAGTTATTAAGGGATGAATAATCCTCCAATATAAATATCTCTCACTTATTTAAA | – | 0.127 | –
11 | ACAGACGAAGGAGCCGCAAAGAAGTTATTAATGGATAAATAATCCCTCAATATAAATATCTCTCACTTATTTAAA | 0.116 | 0.102 | –
12 | ACAGACGAAGGAGCCGCAAAGAAGTTATTAAGGGATGAATAATCCATCAATATAAATATTTCTCACTTATTTAAA | 0.286 | – | –
13 | ACAGACGAAGGAGCCGCAAAGAAGTTATTATGGGGTGAATAATCCCTCAATATAAATATCTCTCACTTATTTAAA | 0.285 | – | –
14 | ACAGACGAAGGAGCCGCAAAGAAGTTAATAAGGGATGCATAATCCCTCAATATAAATATCTCTCACTTATTTAAA | 0.301 | – | –
15 | ACAGACGAAGGAGCCGCAAAGAAGTTATTAAGGGATGAATAATCCCTCTACATAAATATCTCTCACTTATTTAAA | 0.441 | – | –
16 | ACAGACGAAGGAGCCGCAAAGAAGTTATTAAGGGATGAATAATCCCACAATATATATATCTCTCACTTATTTAAA | 0.303 | – | –
17 | CGACATGTCCCGCTTCTTTCATTAATCCGTTAGCACCTGTTTTGCTATATACAATTACCTTTTAAGAGGAGGAAT | – | – | 0.867
18 | CGACATGTCCCGCTTCTTTCATTAATCCGTTAGCAACTGTTTTACTATATACGTTTACCTTTTAAGAGGAGGAAT | – | – | 0.455
19 | ACAGACGAAGGAGCCGCAAAGAATTTATTAAGGGATGAATAATCCCTCAATATAATTATCTCTCACTTATTTAAA | 0.354 | – | –
20 | ACAGACGAAGGAGCCGCAAAGAAGTTATTAAGGCATGAATAATCCTTCAATATAAATATCTCTCACTTATTTAAA | 0.13 | 0.115 | –
21 | ACAGACGAAGGAGCCGCACAGAAGTTATTAAGGAATGAATAATCCCTCAATATAAATATCTCTCACTTATTTAAA | 0.143 | – | –
22 | CGACATGTCCCGCTTCTTTCATTAATCCGTTAGCAACTGTTTTGCTATATACAACTACCTTTTAAGAGGAGGAAT | – | – | 1.12
23 | CGACATGTCCCGCTTCTTTCATTACTCCATTAGCAACTGTTTTGCTATATACATTTACCATTTAAGAGGAGGAAT | – | – | 1.11
24 | ACAGACGAAGGAGCCGCAACAAAGTTATTAAGGGATGAATAATCCCTCAATATAAATATCTCTCACTTATTTAAA | 0.8 | – | –
